This experiment has as its target T1, neuropilin-1 on MDA-MB-231 tumor cells (UniProt O14786 22-923, limits assumed).
T1 construct: whole, on cells
In words: Binding of VEGF to MDA-MB-231 cells with or without Aβ peptides (data not shown).

B1: Vascular endothelial growth factor VEGF165 (ligand)
chain: APMAEGGGQNHHEVVKFMDVYQRSYCHPIETLVDIFQEYPDEIEYIFKPSCVPLMRCGGCCNDEGLECVPTEESNITMQIMRIKPHQGQHIGEMSFLQHNKCECRPKKDRARQENPCGPCSERRKHLFVQDPQTCKCSCKNTDSRCKARQLELNERTCRCDKPRR
modifications: 125I label in the radioligand, co-aggregation, dissociation and trapping assays (position not given)
notes: 125I-VEGF was bought from Amersham; also called 125I-VEGF; 125I-VEGF165
B1: the binding result is given as “binds”.

Source of the values: patent US20080293922A1 (POSCO, published 2008).
